Source: US20240400654A1
Positions count from the first letter of the chain named. Names and notes keep the numbering of the source. Values joined by “and” are separate entries in the source; they are usually repeats but may differ in a detail not shown here. Identical values can stand only once.

B1: KB001 mouse Fab VL T100D (Fab, V domains shown)
VH: EVQLKQSGPGLVAPSQSLSITCTVSGFSLSIYSVHWVRQPPGKGLEWLGMIWGGGSSDYNSALKSRLSISKDNSKSQVFLKMNSLQTDDTAMYYCARNGNFYAMDYWGQGTSVTVSS
VL: QIVLTQSPAIMSASLGERVTMTCTASSSVSSSFLHWYQQKPGSSPQLWIYSTSNLASGVPARFSGSGSGTSYSLTISSMEAEDAATYYCHQYHHSPYIYDFGGGTKLEIK
B2: KB001 mouse Fab VL T100K (Fab, V domains shown)
VH: B1 VH
VL: B1 VL with D100K
B3: KB001 mouse Fab variant VL L55R/S51G (Fab, V domains shown)
VH: B1 VH
VL: B1 VL with S51G, L55R, D100T
B4: KB001 mouse Fab variant VL A56T (Fab, V domains shown)
VH: B1 VH
VL: B1 VL with A56T, D100T
B5: KB001 mouse Fab variant VL Q91E (Fab, V domains shown)
VH: B1 VH
VL: B1 VL with Q91E, D100T
B6: KB001 mouse Fab variant VL H90L (Fab, V domains shown)
VH: B1 VH
VL: B1 VL with H90L, D100T
B7: KB001 mouse Fab variant VL A56V (Fab, V domains shown)
VH: B1 VH
VL: B1 VL with A56V, D100T
B8: KB001 mouse Fab variant VL A56P (Fab, V domains shown)
VH: B1 VH
VL: B1 VL with A56P, D100T
B9: KB001 mouse Fab variant VL A56M (Fab, V domains shown)
VH: B1 VH
VL: B1 VL with A56M, D100T
B10: KB001 mouse Fab variant VL S57L (Fab, V domains shown)
VH: B1 VH
VL: B1 VL with S57L, D100T
B11: KB001 mouse Fab variant VL Q91M (Fab, V domains shown)
VH: B1 VH
VL: B1 VL with Q91M, D100T
B12: KB001 mouse Fab variant VL L55H (Fab, V domains shown)
VH: B1 VH
VL: B1 VL with L55H, D100T
B13: KB001 mouse Fab variant VL A56N (Fab, V domains shown)
VH: B1 VH
VL: B1 VL with A56N, D100T
B14: KB001 mouse Fab variant VL S57Q (Fab, V domains shown)
VH: B1 VH
VL: B1 VL with S57Q, D100T
B15: KB001 mouse Fab variant VL H90W (Fab, V domains shown)
VH: B1 VH
VL: B1 VL with H90W, D100T
B16: KB001 mouse Fab variant VL A56S (Fab, V domains shown)
VH: B1 VH
VL: B1 VL with A56S, D100T
B17: KB001 mouse Fab variant VL A56R (Fab, V domains shown)
VH: B1 VH
VL: B1 VL with A56R, D100T
B18: KB001 mouse Fab variant VL S57W (Fab, V domains shown)
VH: B1 VH
VL: B1 VL with S57W, D100T
B19: KB001 mouse Fab variant VL S57E (Fab, V domains shown)
VH: B1 VH
VL: B1 VL with S57E, D100T
B20: KB001 mouse Fab variant VL S57R (Fab, V domains shown)
VH: B1 VH
VL: B1 VL with S57R, D100T
B21: KB001 mouse Fab variant VL L55S (Fab, V domains shown)
VH: B1 VH
VL: B1 VL with L55S, D100T
B22: KB001 mouse Fab variant VL S57M (Fab, V domains shown)
VH: B1 VH
VL: B1 VL with S57M, D100T
B23: KB001 mouse Fab variant VL L55Q (Fab, V domains shown)
VH: B1 VH
VL: B1 VL with L55Q, D100T
B24: KB001 mouse Fab variant VL S57N (Fab, V domains shown)
VH: B1 VH
VL: B1 VL with S57N, D100T
B25: KB001 mouse Fab variant VL A56Q (Fab, V domains shown)
VH: B1 VH
VL: B1 VL with A56Q, D100T
B26: KB001 mouse Fab variant VL S57A (Fab, V domains shown)
VH: B1 VH
VL: B1 VL with S57A, D100T
B27: KB001 mouse Fab variant VL S57F (Fab, V domains shown)
VH: B1 VH
VL: B1 VL with S57F, D100T
B28: KB001 mouse Fab variant VL S57I (Fab, V domains shown)
VH: B1 VH
VL: B1 VL with S57I, D100T
B29: KB001 mouse Fab variant VL S57K (Fab, V domains shown)
VH: B1 VH
VL: B1 VL with S57K, D100T

target: HRgpA-6H (Porphyromonas gingivalis) (UniProt P28784); experiment: ELISA, coated HRgpA-6H
Chain of UniProt P28784 (P28784 228-860 limits assumed): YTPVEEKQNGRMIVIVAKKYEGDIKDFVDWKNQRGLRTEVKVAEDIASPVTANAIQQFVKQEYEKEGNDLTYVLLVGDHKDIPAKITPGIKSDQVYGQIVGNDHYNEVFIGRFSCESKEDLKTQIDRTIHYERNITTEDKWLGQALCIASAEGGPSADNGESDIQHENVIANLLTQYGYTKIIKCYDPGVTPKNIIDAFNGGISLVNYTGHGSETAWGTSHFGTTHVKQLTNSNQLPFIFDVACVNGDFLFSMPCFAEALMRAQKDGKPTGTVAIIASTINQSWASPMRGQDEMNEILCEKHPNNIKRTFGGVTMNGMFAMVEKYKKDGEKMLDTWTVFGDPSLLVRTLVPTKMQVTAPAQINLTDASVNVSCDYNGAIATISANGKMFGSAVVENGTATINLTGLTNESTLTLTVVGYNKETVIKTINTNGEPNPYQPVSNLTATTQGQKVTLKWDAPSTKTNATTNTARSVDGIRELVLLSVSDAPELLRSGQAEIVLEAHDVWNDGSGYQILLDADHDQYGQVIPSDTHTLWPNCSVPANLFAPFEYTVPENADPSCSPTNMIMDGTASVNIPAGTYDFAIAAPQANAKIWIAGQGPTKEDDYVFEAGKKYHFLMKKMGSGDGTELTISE

Question: Which OD450 nm does the source give for B1 here?
Answer: The OD450 nm was 0.645.

Question: What about the Ratio OD(Variant)/OD(WT) of the same binder?
Answer: The Ratio OD(Variant)/OD(WT) was 1.23.

Question: What does the source list for B2?
Answer: OD450 nm: 0.625; Ratio OD(Variant)/OD(WT): 1.19

target: HRgpA-6H (Porphyromonas gingivalis) (UniProt P28784); experiment: ELISA, FASEBA Fab supernatant on coated HRgpA-6H

Question: How did the OD450 nm turn out when B3 was run?
Answer: Its OD450 nm is 0.748.

Question: How did the OD450 nm turn out when B4 was run?
Answer: The OD450 nm was 0.731.

Question: With B5 as the binder, how does the OD450 nm read?
Answer: The OD450 nm was 0.709 and 0.694 and 0.701.

Question: B6 was tested. Which OD450 nm did it give?
Answer: Its OD450 nm is 0.785 and 0.694.

Question: Which OD450 nm does the source give for B7 here?
Answer: The OD450 nm was 0.794 and 0.795.

Question: How did the OD450 nm turn out when B8 was run?
Answer: The OD450 nm was 0.748.

Question: B9 was tested. Which OD450 nm did it give?
Answer: Its OD450 nm is 0.802 and 0.701.

Question: How did the OD450 nm turn out when B10 was run?
Answer: The OD450 nm was 0.781.

Question: For B11, which OD450 nm is on record?
Answer: Its OD450 nm is 0.757.

Question: Which OD450 nm does the source give for B12 here?
Answer: Its OD450 nm is 0.64.

Question: How did the OD450 nm turn out when B13 was run?
Answer: The OD450 nm was 0.712 and 0.775.

Question: Which OD450 nm does the source give for B14 here?
Answer: Its OD450 nm is 0.658.

Question: Which OD450 nm does the source give for B15 here?
Answer: Its OD450 nm is 0.763.

Question: With B16 as the binder, how does the OD450 nm read?
Answer: The OD450 nm was 0.772 and 0.751 and 0.774.

Question: For B17, which OD450 nm is on record?
Answer: Its OD450 nm is 0.728 and 0.734 and 0.751.

Question: With B18 as the binder, how does the OD450 nm read?
Answer: The OD450 nm was 0.784.

Question: B19 was tested. Which OD450 nm did it give?
Answer: Its OD450 nm is 0.751.

Question: How did the OD450 nm turn out when B20 was run?
Answer: Its OD450 nm is 0.746.

Question: Which OD450 nm does the source give for B21 here?
Answer: Its OD450 nm is 0.655.

Question: Which OD450 nm does the source give for B22 here?
Answer: Its OD450 nm is 0.745.

Question: How did the OD450 nm turn out when B23 was run?
Answer: Its OD450 nm is 0.662.

Question: How did the OD450 nm turn out when B24 was run?
Answer: Its OD450 nm is 0.813.

Question: Which OD450 nm does the source give for B25 here?
Answer: Its OD450 nm is 0.705.

Question: Which OD450 nm does the source give for B26 here?
Answer: The OD450 nm was 0.806.

Question: How did the OD450 nm turn out when B27 was run?
Answer: The OD450 nm was 0.785 and 0.787 and 0.797.

Question: With B28 as the binder, how does the OD450 nm read?
Answer: The OD450 nm was 0.791.

Question: B29 was tested. Which OD450 nm did it give?
Answer: Its OD450 nm is 0.712.

target: HRgpA-6H (Porphyromonas gingivalis) (UniProt P28784); experiment: ELISA on coated HRgpA-6H, OD relative to parental Fab

Question: B3 was tested. Which Ratio OD(Variant)/OD(WT) did it give?
Answer: The Ratio OD(Variant)/OD(WT) was 0.955 fold.

Question: B4 was tested. Which Ratio OD(Variant)/OD(WT) did it give?
Answer: The Ratio OD(Variant)/OD(WT) was 0.896 fold.

Question: How did the Ratio OD(Variant)/OD(WT) turn out when B5 was run?
Answer: The Ratio OD(Variant)/OD(WT) was 0.823 fold and 0.806 fold and 0.814 fold.

Question: Which Ratio OD(Variant)/OD(WT) does the source give for B6 here?
Answer: The Ratio OD(Variant)/OD(WT) was 0.911 fold and 0.806 fold.

Question: How did the Ratio OD(Variant)/OD(WT) turn out when B7 was run?
Answer: Its Ratio OD(Variant)/OD(WT) is 0.974 fold and 0.975 fold.

Question: Which Ratio OD(Variant)/OD(WT) does the source give for B8 here?
Answer: Its Ratio OD(Variant)/OD(WT) is 0.917 fold.

Question: With B9 as the binder, how does the Ratio OD(Variant)/OD(WT) read?
Answer: Its Ratio OD(Variant)/OD(WT) is 0.983 fold and 0.86 fold.

Question: B10 was tested. Which Ratio OD(Variant)/OD(WT) did it give?
Answer: Its Ratio OD(Variant)/OD(WT) is 0.958 fold.

Question: Which Ratio OD(Variant)/OD(WT) does the source give for B11 here?
Answer: The Ratio OD(Variant)/OD(WT) was 0.879 fold.

Question: With B12 as the binder, how does the Ratio OD(Variant)/OD(WT) read?
Answer: Its Ratio OD(Variant)/OD(WT) is 0.817 fold.

Question: B13 was tested. Which Ratio OD(Variant)/OD(WT) did it give?
Answer: The Ratio OD(Variant)/OD(WT) was 0.873 fold and 0.95 fold.

Question: B14 was tested. Which Ratio OD(Variant)/OD(WT) did it give?
Answer: The Ratio OD(Variant)/OD(WT) was 0.807 fold.

Question: Which Ratio OD(Variant)/OD(WT) does the source give for B15 here?
Answer: Its Ratio OD(Variant)/OD(WT) is 0.886 fold.

Question: With B16 as the binder, how does the Ratio OD(Variant)/OD(WT) read?
Answer: Its Ratio OD(Variant)/OD(WT) is 0.947 fold and 0.921 fold and 0.949 fold.

Question: How did the Ratio OD(Variant)/OD(WT) turn out when B17 was run?
Answer: The Ratio OD(Variant)/OD(WT) was 0.893 fold and 0.9 fold and 0.921 fold.

Question: Which Ratio OD(Variant)/OD(WT) does the source give for B18 here?
Answer: The Ratio OD(Variant)/OD(WT) was 0.961 fold.

Question: For B19, which Ratio OD(Variant)/OD(WT) is on record?
Answer: Its Ratio OD(Variant)/OD(WT) is 0.921 fold.

Question: How did the Ratio OD(Variant)/OD(WT) turn out when B20 was run?
Answer: The Ratio OD(Variant)/OD(WT) was 0.915 fold.

Question: Which Ratio OD(Variant)/OD(WT) does the source give for B21 here?
Answer: The Ratio OD(Variant)/OD(WT) was 0.836 fold.

Question: B22 was tested. Which Ratio OD(Variant)/OD(WT) did it give?
Answer: The Ratio OD(Variant)/OD(WT) was 0.914 fold.

Question: How did the Ratio OD(Variant)/OD(WT) turn out when B23 was run?
Answer: The Ratio OD(Variant)/OD(WT) was 0.845 fold.

Question: B24 was tested. Which Ratio OD(Variant)/OD(WT) did it give?
Answer: The Ratio OD(Variant)/OD(WT) was 0.997 fold.

Question: For B25, which Ratio OD(Variant)/OD(WT) is on record?
Answer: The Ratio OD(Variant)/OD(WT) was 0.865 fold.

Question: With B26 as the binder, how does the Ratio OD(Variant)/OD(WT) read?
Answer: The Ratio OD(Variant)/OD(WT) was 0.988 fold.

Question: How did the Ratio OD(Variant)/OD(WT) turn out when B27 was run?
Answer: Its Ratio OD(Variant)/OD(WT) is 0.963 fold and 0.965 fold and 0.977 fold.

Question: B28 was tested. Which Ratio OD(Variant)/OD(WT) did it give?
Answer: Its Ratio OD(Variant)/OD(WT) is 0.97 fold.

Question: B29 was tested. Which Ratio OD(Variant)/OD(WT) did it give?
Answer: Its Ratio OD(Variant)/OD(WT) is 0.873 fold.
